Reference: patent US11780927B2, “Anti-CD40 antibodies for use in prevention of graft rejection” (NOVARTIS AG, priority 2018, dated 2023)
Values joined by “and” are separate entries in the source; they are usually repeats but may differ in a detail not shown here. Equal entries are not always repeated.

Experiments:
human PBMCs = test: rCD154 and IL-4-mediated proliferation (3H-TdR), human PBMCs; type: cell-based
PBMCs = details: Rhesus
[1] = cynomolgus monkey, in vivo
[2] = biological target: T1, CD40 on peripheral B cells (Homo sapiens, UniProt P25942); test: Single-ascending dose study in healthy subjects and rheumatoid arthritis patients; type: in vivo; details: for Safety and tolerability: single doses up to 3 mg/kg in healthy volunteers, 10 mg/kg in RA patients
T1 construct: CD40 occupancy on peripheral B cells measuring free CD40 and total CD40; endogenous in cells; host or cells: peripheral / whole blood B cells of healthy subjects and rheumatoid arthritis patients dosed with CFZ533
T1 sequence (P25942 21-277): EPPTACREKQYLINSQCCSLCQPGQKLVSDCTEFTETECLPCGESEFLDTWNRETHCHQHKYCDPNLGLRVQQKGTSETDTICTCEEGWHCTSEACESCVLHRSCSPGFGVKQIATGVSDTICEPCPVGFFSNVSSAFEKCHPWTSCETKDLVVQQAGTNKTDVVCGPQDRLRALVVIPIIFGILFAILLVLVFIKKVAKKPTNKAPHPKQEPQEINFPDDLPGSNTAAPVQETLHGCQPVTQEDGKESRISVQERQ
Protocol: The safety, tolerability, PK and PD activity of mAb1 are being assessed in an ongoing, randomized, double-blind, placebo-controlled, single-ascending dose study of mAb1 in healthy subjects and patients with rheumatoid arthritis (RA). A total of 48 subjects have been enrolled: 36 healthy subjects who received single doses of mAb1 up to 3 mg/kg IV or S.C., and 12 patients with RA, 6 of whom received single doses of mAb1 at 10 mg/kg IV. […] An investigation of the 30 mg/kg IV dose is ongoing in RA patients. As this study is still ongoing, all clinical data are preliminary in nature and based on interim analyses conducted up to a dose of 10 mg/kg in RA patients. […]

Single dose PK/PD study = type: in vivo, cynomolgus monkeys
Protocol: Single dose pharmacokinetic/pharmacodynamic (PK/PD) studies utilized biologics-treatment naive cynomolgus monkeys (Macaca fascicularis) between 7.5-8.5 years old (6.5±2.6 kg) and captive-bred from Philippines (Siconbrec, Makati City, Philippines). Animal handling, care, drug treatments and blood sampling are performed according to the Swiss Federal Law for animal protection (animal licenses BS #1900, BS #1495). For the recall immunization experiments, we utilized animals from a toxicology study conducted at Covance Laboratories GmbH, Muenster, Germany, (manuscript in preparation). The study was performed according to an authorized study protocol and local standard operating procedures in strict compliance with national legal regulations on animal welfare law and accepted animal welfare standards.
In the PK study, CFZ533 was administered to three animals at calculated single doses of 16.2 (5532), 18.5 (5531) and 20 (5530) mg/kg. […] KLH specific IgM/IgG titers were determined with sandwich ELISA using cynomolgus monkey anti-KLH IgM/IgG reference serum as standard. […]
FIG. 9A. Serum concentrations of CFZ533 in three cynomolgus monkeys after single dose administration at calculated doses of 16.2 (5532), 18.5 (5531) and 20 (5530) mg/kg intravenously. […]

[3] = tested on: life-supporting kidney allografts; test: NHP model of kidney allograft rejection; type: in vivo, cynomolgus monkeys (Macaca fascicularis)
human B cell line RI-1 = test: Internalization by image flow cytometry; type: cell-based; details: 3 hours at 37° C.
Protocol: Internalization of fluorescently tagged CFZ533 and rCD154 was assessed in vitro using the human B cell line RI-1 (Th'ng et al, 1987). CD40 dependence of CFZ533 internalization was assessed using a CD40 knockout RI-1 cell line. Internalization was assessed using an Amnis® image flow cytometer (Merck KHaA, Darnstadt) according to the manufacturer's instructions and data analyzed using ImageStream®^X software.
FIG. 8B. Relative internalization erode of CFZ533 and rCD154 under permissive conditions (non-permissive erode values subtracted). Each dot represents data from an individual experiment and the population mean is indicated as a horizontal red line. FIG. 8C. Representative images of individual CD40 expressing or CD40 knock-out RI-1 cells cultured with Alexa488 labeled CFZ533 for 3 hours at 37° C. In all experiments, cells were co-stained with AlexaFlour 647 labeled CD45 to demark the cell membrane.

RAJI B cells = test: Complement-dependent cytotoxicity with rabbit complement; type: cell-based; details: 2 hours
Protocol: See supplementary material for detailed methods. Briefly, the ability of CFZ533 to mediated depletion of CD20^pos B cells was monitored in human whole blood over a period of three days in comparison to the B cell depleting antibody Rituximab. For CDC, CFZ533 or Rituximab were incubated with RAJI B cells in the presence or absence of rabbit complement and cell lysis was assessed by luminescence.
B cells numbers were determined based on CD45pos and CD19pos events falling within lymphocyte FSC (forward-scattered light)/SSC (side-scattered light) gate. Results for individual antibody concentrations were calculated as percent remaining B cells with reference to untreated samples and graphed as a function of log-transformed antibody concentration (adjusted to 100% and shown as a dotted line). Data represent the mean and SD of eight independent donors. […] Concentration dependent killing of the Raji cells was analyzed after 2 hours, where the viability of the cells was measured by determination of the ATP concentration in each well using luciferase. Results are presented as isotype-control normalized relative luciferase units (RLU) as a function of log-transformed antibody concentration.

CFZ533: human anti-CD40 IgG1 monoclonal antibody with Fc-silencing N297A mutation; heavy chain SEQ ID NO: 9, light chain SEQ ID NO: 10
Effect of delayed addition on rCD154-induced cellular activation (human PBMCs; added up to 6 hours after start of cultures containing rCD154): complete inhibition of cellular activation with minimal loss of potency
Inhibition of rCD154-induced proliferation (IC50 PBMCs) (human PBMCs; human PBMCs): 0.02 µg/mL
IC50 (human PBMCs; human PBMCs, read-out: IC50, rCD154-induced proliferation): 0.12 nM
Inhibition of rCD154-induced proliferation (IC50 PBMCs) (PBMCs): 0.03 µg/mL and 0.026 ± 0.017 µg/mL
average concentration at steady state (Cav,ss) ([1]; 150 mg/kg): 8300 µg/mL
systemic exposure (AUC, steady state conditions) over a 1-month period ([1]; 150 mg/kg): 232400 µg·days/mL
Cmax,ss (mean, all animals) ([1]; sc, 50 mg/kg): 3235 µg/mL
duration of full CD40 occupancy ([2]; 1 mg/kg IV): 1 week
duration of target engagement (full CD40 occupancy on B cells) ([2]; 3 mg/kg IV, healthy subjects): about 4 weeks
duration of target engagement (full CD40 occupancy on B cells) ([2]; 3 mg/kg SC, healthy subjects): about 4 weeks
time of peak plasma concentration ([2]; 3 mg/kg SC, healthy subjects): 3 days
duration of full CD40 occupancy ([2]; 10 mg/kg IV, rheumatoid arthritis patients): 8 weeks
duration of target engagement ([2]; 30 mg/kg IV, rheumatoid arthritis patients): 16 weeks
decrease in total CD40 on peripheral B cells ([2]; healthy subjects): about 50%
ADA incidence ([2]; human, in vivo): 2%
plasma concentration associated with full (≥90%) CD40 occupancy on whole blood B cells ([2]; human, in vivo): 0.3 to 0.4 µg/mL
duration of suppression of anti-KLH responses (full receptor occupancy) ([2]; single dose of 3 mg/kg (IV and SC)): 3-4 weeks
Safety and tolerability [2]: did not reveal major safety concern
Safety and tolerability ([2]; listed as mAb1): safe and well tolerated
inflection point in PK profiles (drop of CD40 saturation) (Single dose PK/PD study; serum concentration-time profiles, non-human primates): 10 to 20 µg/mL
Depletion of peripheral blood B cells (Single dose PK/PD study; single intravenous dose 16.2, 18.5 and 20 mg/kg): did not deplete peripheral blood B cells
Days after Transplantation (median days) ([3]; CFZ533 30 mg/kg i.v. monotherapy, n 5): 95 days
Survival of kidney allografts and graft morphology ([3]; combination with CsA (20 mg/kg p.o.) or monotherapy): demonstrated efficacy in increasing the survival of kidney allografts in NHPs
Internalization by RI-1 B cells (human B cell line RI-1): internalized
Complement-dependent cytotoxicity (CDC) of Raji B cells (RAJI B cells): unable to mediate complement-dependent cytotoxicity
